Source: patent publication US20220193132A1 (NATIONAL RESEARCH COUNCIL OF CANADA, published 2022)
Changes are numbered by the printed parent chain.

T1: EGFRvIII amino acid residues 15 to 37 with Gly21 to Ala mutation (human)
T1 construct: mutation is already in the entry
T1 peptide: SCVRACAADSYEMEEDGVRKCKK

T2: EGFRvIII amino acid residues 15 to 37 with Cys20 to Ala mutation (human)
T2 construct: mutation is already in the entry
T2 peptide: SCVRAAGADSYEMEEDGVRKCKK

T3: EGFRvIII amino acid residues 15 to 37 with Arg18 to Ala mutation (human)
T3 construct: mutation is already in the entry
T3 peptide: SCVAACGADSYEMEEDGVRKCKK

T4: EGFRvIII amino acid residues 15 to 37 with Cys35 to Ala mutation (human)
T4 construct: mutation is already in the entry
T4 peptide: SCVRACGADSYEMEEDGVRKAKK

T5: EGFRvIII amino acid residues 15 to 37 with Cys16 to Ala mutation (human)
T5 construct: mutation is already in the entry
T5 peptide: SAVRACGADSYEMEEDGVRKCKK

T6: EGFRvIII amino acid residues 15 to 37 with Ser24 to Ala mutation (human)
T6 construct: mutation is already in the entry
T6 peptide: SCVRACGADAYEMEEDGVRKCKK

T7: EGFRvIII amino acid residues 15 to 37 with Glu28 to Ala mutation (human)
T7 construct: mutation is already in the entry
T7 peptide: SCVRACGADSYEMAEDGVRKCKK

T8: EGFRvIII amino acid residues 15 to 37 with Lys34 to Ala mutation (human)
T8 construct: mutation is already in the entry
T8 peptide: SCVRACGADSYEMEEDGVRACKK

T9: EGFRvIII amino acid residues 15 to 37 with Asp23 to Ala mutation (human)
T9 construct: mutation is already in the entry
T9 peptide: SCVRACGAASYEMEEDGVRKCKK

T10: EGFRvIII amino acid residues 15 to 37 with Lys36 to Ala mutation (human)
T10 construct: mutation is already in the entry
T10 peptide: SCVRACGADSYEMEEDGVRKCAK

T11: EGFRvIII amino acid residues 15 to 37 with Glu26 to Ala mutation (human)
T11 construct: mutation is already in the entry
T11 peptide: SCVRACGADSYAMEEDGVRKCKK

T12: EGFRvIII amino acid residues 15 to 37 with Val32 to Ala mutation (human)
T12 construct: mutation is already in the entry
T12 peptide: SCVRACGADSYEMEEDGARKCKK

T13: EGFRvIII amino acid residues 15 to 37 with Arg33 to Ala mutation (human)
T13 construct: mutation is already in the entry
T13 peptide: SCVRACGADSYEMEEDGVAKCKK

T14: EGFRvIII amino acid residues 15 to 37 with Ser15 to Ala mutation (human)
T14 construct: mutation is already in the entry
T14 peptide: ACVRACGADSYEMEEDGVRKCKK

T15: EGFRvIII amino acid residues 15 to 37 with Asp30 to Ala mutation (human)
T15 construct: mutation is already in the entry
T15 peptide: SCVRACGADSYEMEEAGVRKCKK

T16: EGFRvIII amino acid residues 15 to 37 with Val17 to Ala mutation (human)
T16 construct: mutation is already in the entry
T16 peptide: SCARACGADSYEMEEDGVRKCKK

T17: EGFRvIII amino acid residues 15 to 37 with Gly31 to Ala mutation (human)
T17 construct: mutation is already in the entry
T17 peptide: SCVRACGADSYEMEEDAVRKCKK

T18: EGFRvIII amino acid residues 15 to 37 with Tyr25 to Ala mutation (human)
T18 construct: mutation is already in the entry
T18 peptide: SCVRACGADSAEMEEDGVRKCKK

T19: EGFRvIII amino acid residues 15 to 37 with Glu29 to Ala mutation (human)
T19 construct: mutation is already in the entry
T19 peptide: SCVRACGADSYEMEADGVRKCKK

T20: EGFRvIII amino acid residues 15 to 37 with Lys37 to Ala mutation (human)
T20 construct: mutation is already in the entry
T20 peptide: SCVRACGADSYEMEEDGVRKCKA

T21: EGFRvIII fragment amino acid residues 15 to 37, displayed on yeast (human)
T21 construct: also called aa 15-37; fragment 15-37
T21 peptide: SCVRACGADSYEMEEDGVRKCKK

B1: F263-4B3 (antibody, V domains shown)
VH: EVQLQQSGPELVKPGSSVKISCKASGYTFTDYNMDWVKQSHGKSLEWIGTINPNNGGTSYNQKFKGKATLTVDKSSNTAYMELRSLTSEDSAVYYCARGYDYDLWFAYWGQGTLVTVSA
VL: EIVLTQSPALMAASPGEKVTITCSVSSSISSSNLHWYQQKSETSPKPWIYGTSNLASGVPVRFSGSGSGTSYSLTISSMEAEDAATYYCQQWSSYPLTFGAGTKLELE
notes: Mouse hybridoma mAb
B2: F263-5D8 (antibody, V domains shown)
VH: B1 VH with E10D, M34I, N55Y, N77S
VL: B1 VL with A9V, L10F, E108K
notes: Mouse hybridoma mAb

Columns and labels:
[1] = target: T1, EGFRvIII amino acid residues 15 to 37 …; experiment: yeast display flow cytometry, alanine scan
Excerpt: (§1) Assessment of the binding of anti-EGFRvIII mAbs to the fusion proteins expressed on yeast cell surface was done by flow cytometry analysis. Briefly, yeast cells were labeled with both the anti-hEGFRvIII mAb and chicken anti-Myc antibody, the latter being used to monitor the level of expression of the fusion protein. Following a wash step, binding of the primary antibodies is probed by a two-color indirect fluorescence labeling using secondary antibodies specific for mouse and chicken antibodies, respectively.
(§2) To further characterize mAb epitopes within the EGFRvIII 15-37 region, an alanine scan of this region was performed, and modified fragments were expressed at the surface of the yeast. […] The resulting peptides were expressed at the surface of the yeast and each anti-EGFRvIII mAbs was tested on the corresponding yeast mutant strain by flow cytometry analysis. Thus, this assay determined the contribution of each amino acid(s) in the monoclonal antibody binding.

[2] = target: T2, EGFRvIII amino acid residues 15 to 37 …; experiment: yeast display flow cytometry, alanine scan
Excerpt: as §1, §2

[3] = target: T3, EGFRvIII amino acid residues 15 to 37 …; experiment: yeast display flow cytometry, alanine scan
Excerpt: as §1, §2

[4] = target: T4, EGFRvIII amino acid residues 15 to 37 …; experiment: yeast display flow cytometry, alanine scan
Excerpt: as §1, §2

[5] = target: T22, EGFRvIII, full length, overexpressed on glioblastoma cells (human, UniProt P00533 298-623); experiment: cell-based or functional assay
[6] = target: T5, EGFRvIII amino acid residues 15 to 37 …; experiment: yeast display flow cytometry, Myc-normalized;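 further: Anti-EGFRvIII monoclonal antibodies tested by flow cytometry on yeast displaying alanine-substituted fragments, two-color indirect fluorescence with anti-Myc signal tracking fusion protein expression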
Excerpt: as §1, §2

[7] = target: T6, EGFRvIII amino acid residues 15 to 37 …; experiment: yeast display flow cytometry, Myc-normalized;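 further: Anti-EGFRvIII monoclonal antibodies tested by flow cytometry on yeast displaying alanine-substituted fragments, two-color indirect fluorescence with anti-Myc signal tracking fusion protein expression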
Excerpt: as §1, §2

[8] = target: T23, EGFRvIII amino acid residues 15 to 37 with Met27 to Ala mutation (human); experiment: yeast display flow cytometry, Myc-normalized;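 further: Anti-EGFRvIII monoclonal antibodies tested by flow cytometry on yeast displaying alanine-substituted fragments, two-color indirect fluorescence with anti-Myc signal tracking fusion protein expression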
T23 construct: mutation is already in the entry
Excerpt: as §1, §2

[9] = target: T7, EGFRvIII amino acid residues 15 to 37 …; experiment: yeast display flow cytometry, Myc-normalized;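 further: Anti-EGFRvIII monoclonal antibodies tested by flow cytometry on yeast displaying alanine-substituted fragments, two-color indirect fluorescence with anti-Myc signal tracking fusion protein expression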
Excerpt: as §1, §2

[10] = target: T8, EGFRvIII amino acid residues 15 to 37 …; experiment: yeast display flow cytometry, Myc-normalized
Excerpt: as §1, §2

[11] = target: T9, EGFRvIII amino acid residues 15 to 37 …; experiment: yeast display flow cytometry, Myc-normalized
Excerpt: as §1, §2

[12] = target: T10, EGFRvIII amino acid residues 15 to 37 …; experiment: yeast display flow cytometry, Myc-normalized
Excerpt: as §1, §2

[13] = target: T11, EGFRvIII amino acid residues 15 to 37 …; experiment: yeast display flow cytometry, Myc-normalized
Excerpt: as §1, §2

[14] = target: T12, EGFRvIII amino acid residues 15 to 37 …; experiment: yeast display flow cytometry, Myc-normalized
Excerpt: as §1, §2

[15] = target: T13, EGFRvIII amino acid residues 15 to 37 …; experiment: yeast display flow cytometry, Myc-normalized
Excerpt: as §1, §2

[16] = target: T14, EGFRvIII amino acid residues 15 to 37 …; experiment: yeast display flow cytometry, Myc-normalized
Excerpt: as §1, §2

[17] = target: T15, EGFRvIII amino acid residues 15 to 37 …; experiment: yeast display flow cytometry, Myc-normalized
Excerpt: as §1, §2

[18] = target: T16, EGFRvIII amino acid residues 15 to 37 …; experiment: yeast display flow cytometry, Myc-normalized
Excerpt: as §1, §2

[19] = target: T17, EGFRvIII amino acid residues 15 to 37 …; experiment: yeast display flow cytometry, Myc-normalized
Excerpt: as §1, §2

[20] = target: T18, EGFRvIII amino acid residues 15 to 37 …; experiment: yeast display flow cytometry, Myc-normalized
Excerpt: as §1, §2

[21] = target: T19, EGFRvIII amino acid residues 15 to 37 …; experiment: yeast display flow cytometry, Myc-normalized
Excerpt: as §1, §2

[22] = target: T20, EGFRvIII amino acid residues 15 to 37 …; experiment: yeast display flow cytometry, Myc-normalized
Excerpt: as §1, §2

[23] = target: T24, recombinant human EGFRvIII protein (extracellular domain), denatured (human, UniProt P00533 298-623); experiment: ELISA Exp 1, mAb supernatant
T24 construct: Same protein as m21 after 95 C for 5 min in PBS with 40 mM DTT (denatured, reduced); also called EGFRvIII Denatured
Description: (§3) Pre- and post-immune sera titers of animals were assessed by ELISA on recombinant EGFRvIII protein. Unless otherwise stated, all incubations were performed at room temperature. […] Microplates were washed three times in PBS and blocked for 30 min with PBS containing 1% bovine serum albumin (BSA, Sigma Cat #A7030). Blocking buffer was removed and 25 μl of serial dilutions of sera samples were added. […] After a 1-h incubation, microplates were washed 4 times and 25 μl of p-nitrophenyl phosphate (pNPP) substrate (Sigma-Aldrich Canada Co., Oakville, ON) at 1 mg/ml in carbonate buffer at pH 9.6 was added and further incubated for 30 min.
(§4) Antigens at 1-2 mg/ml were incubated at 95° C. for 5 min in PBS containing DTT at a final concentration of 40 mM. They were then incubated on ice for 5 min and diluted at their final coating concentration for ELISA purpose.
(§5) ELISA was performed as described above (serum titer determination) using 25 μl of mAb supernatant (Exp 1) or purified mAb at 1 μg/ml (Exp 2).

[24] = target: T25, recombinant human wild type EGFR protein (extracellular domain), denatured (human, UniProt P00533 25-645); experiment: ELISA Exp 1, mAb supernatant
T25 construct: Same protein as m23 after 95 C for 5 min in PBS with 40 mM DTT (denatured, reduced); also called wt EGFR Denatured
Description: as §3, §4, §5

[25] = target: T26, recombinant human EGFRvIII protein (extracellular domain), native (human, UniProt P00533 298-623); experiment: ELISA Exp 1, mAb supernatant
T26 construct: also called hEGFRvIII
Description: as §3, §4, §5

[26] = target: T27, recombinant human wild type EGFR protein (extracellular domain), native (human, UniProt P00533 25-645); experiment: ELISA Exp 1, mAb supernatant
T27 construct: also called wt EGFR; EGFR WT
Description: as §3, §4, §5

[27] = target: T22, EGFRvIII, full length, overexpressed on …; experiment: flow cytometry dose-response on U87MG-EGFRvIII cells, apparent Kd
[28] = target: T22, EGFRvIII, full length, overexpressed on …; experiment: cell-based or functional assay; remark: listed apart in the source
[29] = target: T24, recombinant human EGFRvIII protein …; experiment: ELISA Exp 2, purified mAb 1 ug/ml;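 further: ELISA of purified mAb binding to plate-coated antigen, native or heat/DTT-denatured, with pNPP substrate developed for 30 min and incubations at room temperature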
[30] = target: T25, recombinant human wild type EGFR …; experiment: ELISA Exp 2, purified mAb 1 ug/ml;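 further: ELISA of purified mAb binding to plate-coated antigen, native or heat/DTT-denatured, with pNPP substrate developed for 30 min and incubations at room temperature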
[31] = target: T26, recombinant human EGFRvIII protein …; experiment: ELISA Exp 2, purified mAb 1 ug/ml;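 further: ELISA of purified mAb binding to plate-coated antigen, native or heat/DTT-denatured, with pNPP substrate developed for 30 min and incubations at room temperature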
[32] = target: T27, recombinant human wild type EGFR …; experiment: ELISA Exp 2, purified mAb 1 ug/ml;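 further: ELISA of purified mAb binding to plate-coated antigen, native or heat/DTT-denatured, with pNPP substrate developed for 30 min and incubations at room temperature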
[33] = target: T21, EGFRvIII fragment amino acid residues …; experiment: yeast surface display, flow cytometry

T23 sequence (peptide, as listed by the source, change not shown): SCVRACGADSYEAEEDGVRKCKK

Binder | binding result [1] | binding result [2] | binding result [3] | binding result [4] | % survival (DM1 secondary-conjugate ADC surrogate assay, vs mouse IgG) [5] | % of binding vs wild-type fragment 15-37 [6] | % of binding vs wild-type fragment 15-37 [7] | % of binding vs wild-type fragment 15-37 [8] | % of binding vs wild-type fragment 15-37 [9] | % of binding vs wild-type fragment 15-37 [10] | % of binding vs wild-type fragment 15-37 [11] | % of binding vs wild-type fragment 15-37 [12] | % of binding vs wild-type fragment 15-37 [13] | % of binding vs wild-type fragment 15-37 [14] | % of binding vs wild-type fragment 15-37 [15] | % of binding vs wild-type fragment 15-37 [16] | % of binding vs wild-type fragment 15-37 [17] | % of binding vs wild-type fragment 15-37 [18] | % of binding vs wild-type fragment 15-37 [19] | % of binding vs wild-type fragment 15-37 [20] | other results
B1 | no binding (tested: 0-15% of wild-type binding) | no binding (tested: 0-15% of wild-type binding) | no binding (tested: 0-15% of wild-type binding) | no binding (tested: 0-15% of wild-type binding) | 83% | 169% | 194% | 101% | 86.7% | 136% | 94.1% | 99.2% | 102% | 92.4% | 68.4% | 94.7% | 94.3% | 146% | 49.9% | 98.8% | % of binding vs wild-type fragment 15-37 [21]: 71.6%; % of binding vs wild-type fragment 15-37 [22]: 170%; ELISA absorbance 405 nm [23]: 1.74 A405; ELISA absorbance 405 nm [24]: 0.041 A405; ELISA absorbance 405 nm [25]: 1.5 A405; ELISA absorbance 405 nm [26]: 1.09 A405; Kd [27]: 21.2 nM; % internalization (pHrodo surrogate assay, vs 225 mAb) [28]: 61%; ELISA absorbance 405 nm [29]: 0.603 A405; ELISA absorbance 405 nm [30]: 0.003 A405; ELISA absorbance 405 nm [31]: 1.19 A405; ELISA absorbance 405 nm [32]: 0.066 A405; binding result [33]: binds
B2 | no binding (tested: 0-15% of wild-type binding) | no binding (tested: 0-15% of wild-type binding) | no binding (tested: 0-15% of wild-type binding) | no binding (tested: 0-15% of wild-type binding) | 69% | 154% | 246% | 96.5% | 81.6% | 151% | 106% | 97.9% | 37.9% | 95.2% | 71.8% | 93.1% | 80.4% | 144% | 40.4% | 108% | % of binding vs wild-type fragment 15-37 [21]: 77.3%; % of binding vs wild-type fragment 15-37 [22]: 194%; ELISA absorbance 405 nm [23]: 1.86 A405; ELISA absorbance 405 nm [24]: 0.049 A405; ELISA absorbance 405 nm [25]: 1.43 A405; ELISA absorbance 405 nm [26]: 1.38 A405; Kd [27]: 19.7 nM; % internalization (pHrodo surrogate assay, vs 225 mAb) [28]: 64%; ELISA absorbance 405 nm [29]: 0.848 A405; ELISA absorbance 405 nm [30]: 0 A405; ELISA absorbance 405 nm [31]: 1.49 A405; ELISA absorbance 405 nm [32]: 0.159 A405; binding result [33]: binds
